Numbered stars: 1 amine (or outer) side, 2 acyl side, 3 side chain; on linkers, the order of the positions; unused ones are H or OH. Square brackets hold non-standard residues; d marks the D form. Side chains are listed from the residue outwards. * marks the point of attachment. γGlu = O=C(O)[C@H](CCC(=O)[*:2])N[*:1]; Palmitoyl = CCCCCCCCCCCCCCCC(=O)*; Aib = CC(C)(N)C(=O)O
T1: endogenous GLP-1 receptor of a murine insulinoma cell line (murine, UniProt O35659 22-463)
T1 sequence (looked up): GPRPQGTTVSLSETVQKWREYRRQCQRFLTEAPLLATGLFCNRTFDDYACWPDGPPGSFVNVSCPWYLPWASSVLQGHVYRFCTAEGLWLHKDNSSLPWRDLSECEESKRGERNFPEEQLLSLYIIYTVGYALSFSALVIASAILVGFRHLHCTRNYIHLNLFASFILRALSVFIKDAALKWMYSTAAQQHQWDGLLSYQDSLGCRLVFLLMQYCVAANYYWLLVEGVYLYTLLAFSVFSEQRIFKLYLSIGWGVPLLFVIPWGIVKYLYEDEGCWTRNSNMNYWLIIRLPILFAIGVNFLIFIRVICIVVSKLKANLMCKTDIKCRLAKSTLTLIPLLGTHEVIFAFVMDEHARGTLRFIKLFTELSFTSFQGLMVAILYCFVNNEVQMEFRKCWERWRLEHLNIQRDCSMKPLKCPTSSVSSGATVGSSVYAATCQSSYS


Assays:
Assay in all cases: cell-based or functional assay
[1] = biological target: endogenous glucagon receptor of primary rat hepatocytes (rat, UniProt P30082 27-485)
Chain of endogenous glucagon receptor of primary rat hepatocytes (P30082 27-485): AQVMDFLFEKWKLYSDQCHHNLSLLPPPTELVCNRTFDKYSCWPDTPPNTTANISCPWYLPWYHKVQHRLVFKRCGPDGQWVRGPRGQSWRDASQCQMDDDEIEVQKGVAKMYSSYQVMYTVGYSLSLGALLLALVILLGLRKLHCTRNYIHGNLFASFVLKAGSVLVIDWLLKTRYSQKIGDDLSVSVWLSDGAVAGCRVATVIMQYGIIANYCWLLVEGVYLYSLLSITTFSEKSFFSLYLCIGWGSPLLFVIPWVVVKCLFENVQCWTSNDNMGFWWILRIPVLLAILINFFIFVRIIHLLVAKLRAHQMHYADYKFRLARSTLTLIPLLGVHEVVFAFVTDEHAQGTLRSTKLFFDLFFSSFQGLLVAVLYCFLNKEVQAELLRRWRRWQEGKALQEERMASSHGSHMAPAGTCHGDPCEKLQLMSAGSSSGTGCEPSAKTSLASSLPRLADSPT

[2] = biological target: human glucagon-like peptide 1 receptor (GLP-1R) (human, UniProt P43220 24-463)
[3] = biological target: human glucagon receptor (Glucagon-R) (human, UniProt P47871 26-477)
Chain of human glucagon receptor (Glucagon-R) (P47871 26-477): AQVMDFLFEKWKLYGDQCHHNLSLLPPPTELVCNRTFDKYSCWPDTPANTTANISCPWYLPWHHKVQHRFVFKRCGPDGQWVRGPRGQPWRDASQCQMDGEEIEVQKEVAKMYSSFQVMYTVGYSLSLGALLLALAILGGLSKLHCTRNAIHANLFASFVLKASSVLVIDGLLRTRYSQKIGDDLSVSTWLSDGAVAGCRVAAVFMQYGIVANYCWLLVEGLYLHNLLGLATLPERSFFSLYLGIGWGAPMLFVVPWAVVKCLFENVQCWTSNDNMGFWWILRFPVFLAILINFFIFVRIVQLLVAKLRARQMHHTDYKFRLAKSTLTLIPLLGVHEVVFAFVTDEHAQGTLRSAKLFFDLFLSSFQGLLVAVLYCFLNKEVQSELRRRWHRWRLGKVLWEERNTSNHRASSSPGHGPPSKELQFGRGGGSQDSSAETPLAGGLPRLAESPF

[4] = biological target: T1, endogenous GLP-1 receptor of a murine …

EC50 GLP-1R Rat hepat. [nM] (inhibition of glycogen synthesis) [1] | EC50 hGLP-1R CHO-K1 [nM] (cAMP) [2] | Ratio GLP-1/Glucagon (EC50 hGLP-1R / EC50 hGCGR) [2] [ratio] | EC50 hGCGR CHO-K1 [nM] (cAMP) [3] | EC50 GLP-1R (murine insulinoma cells) [nM] (cAMP) [4] | Binder
0.17 | 0.19 | 0.31 | 0.61 | 0.3 | HXQGTFTSDYSKYLDEXAAKDFIEWLESA (Aib at position 2; Lys 17 K(Hexadecanoyl-isoGlu); C-terminal amide (-NH2)) [Compound 15]
1.92 | 0.27 | 0.6 | 0.45 | 0.84 | H-HSQGTFTSDYSKYLDSK([γGlu-Palmitoyl])AAEDFVEWLLRA-NH2 (SMILES CCCCCCCCCCCCCCCC(=O)N[C@@H](CCC(=O)NCCCC[C@H](NC(=O)[C@H](CO)NC(=O)[C@H](CC(=O)O)NC(=O)[C@H](CC(C)C)NC(=O)[C@H](Cc1ccc(O)cc1)NC(=O)[C@H](CCCCN)NC(=O)[C@H](CO)NC(=O)[C@H](Cc1ccc(O)cc1)NC(=O)[C@H](CC(=O)O)NC(=O)[C@H](CO)NC(=O)[C@@H](NC(=O)[C@H](Cc1ccccc1)NC(=O)[C@@H](NC(=O)CNC(=O)[C@H](CCC(N)=O)NC(=O)[C@H](CO)NC(=O)[C@@H](N)Cc1c[nH]cn1)[C@@H](C)O)[C@@H](C)O)C(=O)N[C@@H](C)C(=O)N[C@@H](C)C(=O)N[C@@H](CCC(=O)O)C(=O)N[C@@H](CC(=O)O)C(=O)N[C@@H](Cc1ccccc1)C(=O)N[C@H](C(=O)N[C@@H](CCC(=O)O)C(=O)N[C@@H](Cc1c[nH]c2ccccc12)C(=O)N[C@@H](CC(C)C)C(=O)N[C@@H](CC(C)C)C(=O)N[C@@H](CCCNC(=N)N)C(=O)N[C@@H](C)C(N)=O)C(C)C)C(=O)O) [Compound 7]
1.1 | 0.41 | 1.41 | 0.29 | 0.95 | H-HSQGTFTSDYSKYLDSK([γGlu-Palmitoyl])AAHDFVEWLLS-NH2 (SMILES CCCCCCCCCCCCCCCC(=O)N[C@@H](CCC(=O)NCCCC[C@H](NC(=O)[C@H](CO)NC(=O)[C@H](CC(=O)O)NC(=O)[C@H](CC(C)C)NC(=O)[C@H](Cc1ccc(O)cc1)NC(=O)[C@H](CCCCN)NC(=O)[C@H](CO)NC(=O)[C@H](Cc1ccc(O)cc1)NC(=O)[C@H](CC(=O)O)NC(=O)[C@H](CO)NC(=O)[C@@H](NC(=O)[C@H](Cc1ccccc1)NC(=O)[C@@H](NC(=O)CNC(=O)[C@H](CCC(N)=O)NC(=O)[C@H](CO)NC(=O)[C@@H](N)Cc1c[nH]cn1)[C@@H](C)O)[C@@H](C)O)C(=O)N[C@@H](C)C(=O)N[C@@H](C)C(=O)N[C@@H](Cc1c[nH]cn1)C(=O)N[C@@H](CC(=O)O)C(=O)N[C@@H](Cc1ccccc1)C(=O)N[C@H](C(=O)N[C@@H](CCC(=O)O)C(=O)N[C@@H](Cc1c[nH]c2ccccc12)C(=O)N[C@@H](CC(C)C)C(=O)N[C@@H](CC(C)C)C(=O)N[C@@H](CO)C(N)=O)C(C)C)C(=O)O) [Compound 8]
0.1 | 0.53 | 0.98 | 0.54 | 0.72 | H-H[Aib]QGTFTSDYSKYLDEK([γGlu-Palmitoyl])RAKDFIEWLLSA-OH (SMILES CCCCCCCCCCCCCCCC(=O)N[C@@H](CCC(=O)NCCCC[C@H](NC(=O)[C@H](CCC(=O)O)NC(=O)[C@H](CC(=O)O)NC(=O)[C@H](CC(C)C)NC(=O)[C@H](Cc1ccc(O)cc1)NC(=O)[C@H](CCCCN)NC(=O)[C@H](CO)NC(=O)[C@H](Cc1ccc(O)cc1)NC(=O)[C@H](CC(=O)O)NC(=O)[C@H](CO)NC(=O)[C@@H](NC(=O)[C@H](Cc1ccccc1)NC(=O)[C@@H](NC(=O)CNC(=O)[C@H](CCC(N)=O)NC(=O)C(C)(C)NC(=O)[C@@H](N)Cc1c[nH]cn1)[C@@H](C)O)[C@@H](C)O)C(=O)N[C@@H](CCCNC(=N)N)C(=O)N[C@@H](C)C(=O)N[C@@H](CCCCN)C(=O)N[C@@H](CC(=O)O)C(=O)N[C@@H](Cc1ccccc1)C(=O)N[C@H](C(=O)N[C@@H](CCC(=O)O)C(=O)N[C@@H](Cc1c[nH]c2ccccc12)C(=O)N[C@@H](CC(C)C)C(=O)N[C@@H](CC(C)C)C(=O)N[C@@H](CO)C(=O)N[C@@H](C)C(=O)O)[C@@H](C)CC)C(=O)O) [Compound 14]
0.04 | 0.23 | 1 | 0.23 | 0.33 | H-HSQGTFTSDYSKYLDEK([γGlu-Palmitoyl])AAHEFVEWLESA-NH2 (SMILES CCCCCCCCCCCCCCCC(=O)N[C@@H](CCC(=O)NCCCC[C@H](NC(=O)[C@H](CCC(=O)O)NC(=O)[C@H](CC(=O)O)NC(=O)[C@H](CC(C)C)NC(=O)[C@H](Cc1ccc(O)cc1)NC(=O)[C@H](CCCCN)NC(=O)[C@H](CO)NC(=O)[C@H](Cc1ccc(O)cc1)NC(=O)[C@H](CC(=O)O)NC(=O)[C@H](CO)NC(=O)[C@@H](NC(=O)[C@H](Cc1ccccc1)NC(=O)[C@@H](NC(=O)CNC(=O)[C@H](CCC(N)=O)NC(=O)[C@H](CO)NC(=O)[C@@H](N)Cc1c[nH]cn1)[C@@H](C)O)[C@@H](C)O)C(=O)N[C@@H](C)C(=O)N[C@@H](C)C(=O)N[C@@H](Cc1c[nH]cn1)C(=O)N[C@@H](CCC(=O)O)C(=O)N[C@@H](Cc1ccccc1)C(=O)N[C@H](C(=O)N[C@@H](CCC(=O)O)C(=O)N[C@@H](Cc1c[nH]c2ccccc12)C(=O)N[C@@H](CC(C)C)C(=O)N[C@@H](CCC(=O)O)C(=O)N[C@@H](CO)C(=O)N[C@@H](C)C(N)=O)C(C)C)C(=O)O) [Compound 10]
0.67 | 0.51 | 0.52 | 0.98 | 1.06 | HXQGTFTSDYSKYLDSXAAHDFVEWLLSA (Aib at position 2; Lys 17 K(Hexadecanoyl-isoGlu); C-terminal -OH) [Compound 13]
0.37 | 0.35 | 1.4 | 0.25 | 1.02 | H-HSQGTFTSDYSKYLDSK([γGlu-Palmitoyl])AAHDFVEWLLR-OH (SMILES CCCCCCCCCCCCCCCC(=O)N[C@@H](CCC(=O)NCCCC[C@H](NC(=O)[C@H](CO)NC(=O)[C@H](CC(=O)O)NC(=O)[C@H](CC(C)C)NC(=O)[C@H](Cc1ccc(O)cc1)NC(=O)[C@H](CCCCN)NC(=O)[C@H](CO)NC(=O)[C@H](Cc1ccc(O)cc1)NC(=O)[C@H](CC(=O)O)NC(=O)[C@H](CO)NC(=O)[C@@H](NC(=O)[C@H](Cc1ccccc1)NC(=O)[C@@H](NC(=O)CNC(=O)[C@H](CCC(N)=O)NC(=O)[C@H](CO)NC(=O)[C@@H](N)Cc1c[nH]cn1)[C@@H](C)O)[C@@H](C)O)C(=O)N[C@@H](C)C(=O)N[C@@H](C)C(=O)N[C@@H](Cc1c[nH]cn1)C(=O)N[C@@H](CC(=O)O)C(=O)N[C@@H](Cc1ccccc1)C(=O)N[C@H](C(=O)N[C@@H](CCC(=O)O)C(=O)N[C@@H](Cc1c[nH]c2ccccc12)C(=O)N[C@@H](CC(C)C)C(=O)N[C@@H](CC(C)C)C(=O)N[C@@H](CCCNC(=N)N)C(=O)O)C(C)C)C(=O)O) [Compound 9]
0.24 | 0.37 | 0.86 | 0.43 | 1.62 | H-HSQGTFTSDYSRYLDSK([γGlu-Palmitoyl])AAHDFVEWLLSA-NH2 (SMILES CCCCCCCCCCCCCCCC(=O)N[C@@H](CCC(=O)NCCCC[C@H](NC(=O)[C@H](CO)NC(=O)[C@H](CC(=O)O)NC(=O)[C@H](CC(C)C)NC(=O)[C@H](Cc1ccc(O)cc1)NC(=O)[C@H](CCCNC(=N)N)NC(=O)[C@H](CO)NC(=O)[C@H](Cc1ccc(O)cc1)NC(=O)[C@H](CC(=O)O)NC(=O)[C@H](CO)NC(=O)[C@@H](NC(=O)[C@H](Cc1ccccc1)NC(=O)[C@@H](NC(=O)CNC(=O)[C@H](CCC(N)=O)NC(=O)[C@H](CO)NC(=O)[C@@H](N)Cc1c[nH]cn1)[C@@H](C)O)[C@@H](C)O)C(=O)N[C@@H](C)C(=O)N[C@@H](C)C(=O)N[C@@H](Cc1c[nH]cn1)C(=O)N[C@@H](CC(=O)O)C(=O)N[C@@H](Cc1ccccc1)C(=O)N[C@H](C(=O)N[C@@H](CCC(=O)O)C(=O)N[C@@H](Cc1c[nH]c2ccccc12)C(=O)N[C@@H](CC(C)C)C(=O)N[C@@H](CC(C)C)C(=O)N[C@@H](CO)C(=O)N[C@@H](C)C(N)=O)C(C)C)C(=O)O) [Compound 12]

From US20140080757A1 (ZEALAND PHARMA A S, published 2014)
